Laboratory results reported in the supplement of paper PMC7125110.
± gives the standard error. This sample holds only a part of the variants without activity.

B1: glmS ribozyme (parent)
chain: AUAAAAGCGCCAGAACUACAGAAAUGUAGUUGACGAGGAGGAGGUUUAUCGAAUUUUCGGCGGAUGCCUCCAAA

What was measured:
Conditions in all cases: with glucosamine-6-phosphate
[1] = variants of: B1; assay: self-cleavage kobs at 640 uM GlcN6P; higher = faster cleavage; RNA array
How it was run: (§1)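 Glucosamine-6-phosphate in HEPES/KCl/Mg(OAc)2 buffer, at 40 μM to 10 mM, was flowed over barcoded ribozyme variants transcribed in situ by E. coli RNA polymerase on sequenced MiSeq chips. Tracking was through a hybridised Cy3 probe at 37 °C. kobs, kcat and KM came from exponential decay fits and weighted Michaelis–Menten fits of normalised per-tile medians.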

[2] = variants of: B1; assay: self-cleavage kobs at 2500 uM GlcN6P; higher = faster cleavage; RNA array
How it was run: as §1

[3] = variants of: B1; assay: self-cleavage kobs at 10000 uM GlcN6P; higher = faster cleavage; RNA array
How it was run: as §1

| Variant | self-cleavage kobs at 640 uM GlcN6P [1] [s⁻¹] | self-cleavage kobs at 2500 uM GlcN6P [2] [s⁻¹] | self-cleavage kobs at 10000 uM GlcN6P [3] [s⁻¹] |
| --- | --- | --- | --- |
| G43C U46G U56G | < 1e-05 |  |  |
| C34U A42G C58U A64G U65G | < 1e-05 | < 1e-05 |  |
| C16A U55G C58G U65G | < 1e-05 |  |  |
| G9A C10U A42G A53U | < 1e-05 | < 1e-05 |  |
| A52U C68G | 0.000375 ± 0.00018 | 4.62e-05 ± 8.4e-06 | 1.85e-05 ± 7.8e-06 |
| A33U G41C A52C A53U A64G U65G C70G | < 1e-05 |  |  |
| A53U C67G C68G | 4.57e-05 ± 2.1e-05 |  |  |
| A6C C10G G41U | < 1e-05 | < 1e-05 |  |
| G44A U45C C61A | < 1e-05 | < 1e-05 |  |
| C16A G41U G59A | < 1e-05 | < 1e-05 |  |
| A36U G51U U56G G59A G66A | < 1e-05 |  |  |
| U30G A39C U54G | 0.0002 ± 3.1e-05 | 0.00053 ± 8.2e-05 | 0.00136 ± 0.0002 |
| G37C U46G C50U | < 1e-05 |  | < 1e-05 |
| C8A C11U G37C G62A | < 1e-05 | < 1e-05 |  |
| C11A G38A G43U U54G | < 1e-05 |  |  |
| G7A A39C U56G C68G | < 1e-05 | < 1e-05 |  |

| Variant | self-cleavage kobs at 640 uM GlcN6P [1] [s⁻¹] | self-cleavage kobs at 2500 uM GlcN6P [2] [s⁻¹] | self-cleavage kobs at 10000 uM GlcN6P [3] [s⁻¹] |
| --- | --- | --- | --- |
| A15U U31C G41U C70U | 3.6e-05 ± 1.4e-05 |  | 6.84e-05 ± 1.3e-05 |
| A12G A14U A15U C71A | 6.44e-05 ± 1.9e-05 | 7.44e-05 ± 1.8e-05 |  |
| G9A C11U G29C G35U G59C | < 1e-05 | < 1e-05 |  |
| A12U U31G G41U | 0.00016 ± 5.9e-05 | 0.000471 ± 0.00018 |  |
| G13U A15G A52C | < 1e-05 | < 1e-05 |  |
| C11G A12C C34G A53G U54C | < 1e-05 | < 1e-05 |  |
| A33G G59A | < 1e-05 |  | < 1e-05 |
| C34G C61U C70G | < 1e-05 | < 1e-05 |  |
| G41U A52C U65A | < 1e-05 |  |  |
| G7C G9U A39G U45A G59A G60A C67U C68U | < 1e-05 |  |  |
| C8U A15C C16G U30C | < 1e-05 |  |  |
| A33U C34U C71G | < 1e-05 |  |  |
| A6C G29C A36U G43U G66A | < 1e-05 |  |  |
| C10G A36G U45G U49A G66A C71U | < 1e-05 | < 1e-05 |  |
| G35C C58A C67U | < 1e-05 |  |  |
